# Experimental data from US6214569A, “Methods for screening for inhibitors of Alzheimer β-peptide filament formation” (President and Fellows of Harvard College, priority 1997, dated 2001).
# Entries after “also recorded” stand apart in the source; their conditions may differ.
# T1: α1 -ACT (Homo sapiens, UniProt P01011)
# T1 sequence (P01011 24-423): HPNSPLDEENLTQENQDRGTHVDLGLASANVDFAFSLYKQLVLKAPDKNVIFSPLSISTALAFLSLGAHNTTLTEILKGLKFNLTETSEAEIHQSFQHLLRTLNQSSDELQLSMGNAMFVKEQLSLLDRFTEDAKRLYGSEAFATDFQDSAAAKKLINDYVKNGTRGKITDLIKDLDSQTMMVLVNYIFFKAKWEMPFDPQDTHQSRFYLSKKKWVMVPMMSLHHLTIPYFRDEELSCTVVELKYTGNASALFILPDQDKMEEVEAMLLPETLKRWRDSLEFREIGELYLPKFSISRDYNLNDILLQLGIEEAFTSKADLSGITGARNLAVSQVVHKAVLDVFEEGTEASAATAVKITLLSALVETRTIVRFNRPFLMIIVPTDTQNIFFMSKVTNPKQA
# B1: α1 -ACT: protease inhibitor α1-antichymotrypsin, amyloid associated protein (protein, UniProt P01011 24-423, looked up)
# Alpha-1-antichymotrypsin: T1 sequence (P01011 24-423)
# Assays:
# α1 -ACT [1] = target: T1, α1 -ACT; conditions: disclosed in U.S. Ser. No. 08/179,574; cited from earlier work
# α1 -ACT [2] = target: T1, α1 -ACT; conditions: disclosed in U.S. Ser. No. 08/179,574; cited from earlier work; remark: listed apart in the source
# Aβ1-42 [3] = target: T2, Aβ1-42 (Homo sapiens, UniProt P05067); assay: Aβ filament formation quantitated by electron microscopy (filament crossovers); format: biochemical; conditions: molar ratio 4:1, 18 hours
# T2 sequence (P05067 672-713): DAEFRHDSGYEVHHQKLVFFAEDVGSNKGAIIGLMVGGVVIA
# Experimental: At 18 hours, filaments were applied to carbon-coated Formvar on 200 mesh copper grids, dried, negatively stained with 3% uranyl acetate and visualized in a JEOL-100CX electron microscope. Many small and a few large filaments were visible in the electron micrograph and are representative of the products of this polymerization reaction.
# The degree of filament formation was analyzed using electron microscopy. The reaction mixture was diluted with water or buffer. A Formvar-coated copper electron microscope grid was touched briefly to a droplet of the reaction mixture, allowing the filaments to stick to the Formvar plastic film. This procedure was also performed with Formvar which was precoated with carbon prior to the sticking of the filaments to the surface. The filaments were then stained with either a solution of uranyl acetate or sprayed ("shadowed") with a heavy metal such as platinum to allow their visualization.
# The Aβ1-42 peptide was incubated in the presence of purified Apolipoproteins E2, E3 and E4 and α1 -ACT, ApoAI and ApoAII at a molar ratio of 4:1, as described in Examples 1 and 2. Electron microscopic examination of the reaction products was used to quantitate the amount of Aβ filament formation from the reaction of Aβ with ApoE3, ApoE4 or α1 -ACT. Five randomly chosen electron micrographs of each reaction product after 18 hours of incubation as in Examples 1 and 2 were analyzed by counting the number of crossovers that the filaments underwent with each other. This provides a measure of both the number and length of the amyloid filaments per unit area of the grid. […] The formation of Aβ filaments was inhibited when ApoE4 was incubated with Aβ in the presence of ApoE2 and equimolar amounts of ApoE4 and ApoE2 were used. Reducing the amount of Aβ filament formed to levels produced by the control protein, BSA (see FIG. 3).
# human cortical neurons = assay: Neurotoxicity of Aβ filaments formed with promoting factors, MTT assay (Example 4); format: cell-based; conditions: applied day 12, MTT day 16
# Experimental: Certain promoters of the assembly of Aβ filaments of amyloid filaments formed in vitro also result in these filaments being neurotoxic. This was determined by using fetal human cortical tissue from 18-22 week gestation were used for this study. The protocol obtaining postmortem fetal tissue complied with all federal guidelines for federal research. The cortical cell culture were prepared as follows. The frontal and temporal lobes were removed from fetal brain. Cells were disassociated in calcium and magnesium free Hank's balanced salt solution containing 0.2% […] for 10 minutes at room temperature, and subsequently disassociated in serum-containing Dulbecco's Modified Eagle Medium (D-MEM) with DNase (0.2 mg/ml) for three times. The cells were plated onto laminin (10 μg/ml) coated 96-well plate ([…]) in a neuronbasal medium supplemented with B27 (Gibco), 2 mM glutamine and 1x antibiotic antimycotic solution and kept in a humidified 5% CO2 atmosphere. […]
# The products of the reactions shown in FIG. 3 were both applied to two or three sister cultured wells on day 12. Cell viability was evaluated by morphological criteria and colorimetric MTT (Tetrazolium) on day 16. […] The plates were read on a BT 1000 microreader, using a test wavelength of 550 nm, a reference wavelength of 650 nm. The plates were routinely read within 20 minutes of addition of DMSO.
# Aβ1-42 [4] = target: T2, Aβ1-42; assay: Aβ filament assembly monitored by light scattering; format: biochemical; conditions: Aβ1-42 80 μM, molar ratio 200:1, light scattering
# Experimental: Biosynthetic Aβ1-42 was incubated at a concentration of 80 μM in 100 μl of 10 μM Tris-HCl; pH 7.0 at 22° C. for 8, 24 and 48 hours. Assembly of Aβ into high molecular weight filamentous structures was monitored by light scattering at […]. Light scattering increases linearly according to the size and number of filaments formed. The results are shown in FIG. 1 and indicate that Aβ peptide spontaneously forms amyloid filaments, starting after about 8 hours of incubation; the rate of formation levels off after about 24 hours. The Aβ1-42 was incubated, as described in Example 1, in the presence or absence of α1 -antichymotrypsin or a control protein (BSA) at a molar ratio of 200:1. Filament assembly was monitored by light scattering. The results are shown in FIG. 2 and indicate that α1 -ACT results in the rate of filament formation being enhanced about ten-fold over the controls. Formation of filaments was essentially complete after about 8 hours.
# [5] = tested on: primary human cortical neurons; assay: Promotion of Aβ1-42 neurotoxicity by pathological chaperones, MTT assay (Example 12); format: cell-based; conditions: Aβ1-42 80 μM with 0.4 μM protein, 48 hours at 22° C.; MTT on day 4
# Experimental: Biosynthetic Aβ1-42 (80 μM) was incubated with ACT (CalBiochem), purified human apoE and individual control protein (0.4 μM) in 100 μl of 10 μM Tris-HCl, pH 7.0 for 48 hours at 22° C. The 12.5 μl of each reaction product was then added to 14 days old primary human cortical neurons in culture. The cell viability was measured by a colorimetric MTT (Sigma) assay on day 4. Data are expressed ±S.E.M. in FIGS. 7-9. ACT and apoE4 induced a 2- and 4-fold increase in neurotoxicity of Aβ1-42, respectively. […] Since Aβ1-42 is prone to self-aggregate into filaments, only aliquots of each preparation of Aβ1-42 devoid of filaments, as judged by electron microscopy, were used for experiments.
# Method of cell culture: The cortical neuron cultures were prepared as follows. Frontal lobes of brain were removed from an electively terminated human fetus on gestational age of 18-21 weeks. Cortical cells were dissociated in serum-free medium containing 0.2% trypsin (Sigma) and 25 μg/ml DNase I (Sigma) and plated 4×10^4 cells per well (96-well plate, Falcon) precoated with 10 μg/ml laminin (Gibco). The cells were cultured in DMEM (Gibco) supplemented with 10% fetal calf serum (Gibco) and 2 mM glutamine. Cultures were kept at 37° C. in a 7% CO2 atmosphere. After day 4 in vitro, non-neuronal cell division was halted by exposure to 10^-5 M cytosine arabinoside. […]
Molecule,promotion of Aβ filament formation (in words) (Aβ1-42 [3]),neurotoxicity of the reaction mixture of Aβ plus the substance (human cortical neurons),other results
Aβ1-28: peptide corresponding to amino acids 1-28 of the N-terminal of Aβ peptide,,,effect on the ability of α1-ACT to inhibit chymotrypsin (α1 -ACT [1]): suppress the ability of α1 -ACT to inhibit chymotrypsin; complex formation with α1-ACT (α1 -ACT [2]): form stable complexes
ApoAII: Apolipoprotein AII,inactive,,
ApoAI: Apolipoprotein AI,inactive,,
"Aβ: Alzheimer's β-peptide, 39-42 amino acid peptide; biosynthetic Aβ1-42 used in the examples [reference compound]",,neurotoxic,
B1,promote the formation of Aβ filaments,greatest neurotoxicity,enhancement of the rate of Aβ filament formation over the controls (Aβ1-42 [4]): at least ten; also recorded: about ten; increase in neurotoxicity of Aβ1-42 [5]: 2 fold
